From paper PMC10776578, “Epstein-Barr virus-driven B cell lymphoma mediated by a direct LMP1-TRAF6 complex” (Nature Communications, 2024)

Legend:
[1] = molecular target: T1, GST-CD40 / His-TRAF6_310-522 (Homo sapiens, UniProt Q9Y4K3); assay: AlphaScreen PPI inhibition, CD40-TRAF6; assay type: binding; conditions: Figure 8 d; best-fit values; 0,03-30 µM peptide
T1 construct: AlphaScreen PPI experiments with GST-CD40 and His-TRAF6_310-522; made in house; host or cells: E. coli (BL21 Codon Plus RIPL for the His-TRAF protein; DH5α or BL21 Codon Plus RIPL for the GST protein)
Procedure: (§1) AlphaScreen experiments were performed in 96- or 384-well plates (Perkin Elmer, OptiPlate). In both assay formats, His-TRAF and GST-LMP1, GST-CD40, or GST-RANK proteins were incubated together in 40 µL of PBS (protein concentrations were calculated to the final reaction volume of 60 µL) supplemented with 0.5% BSA (Sigma, #A7030) and 0.1% Tween-20 (AppliChem, #A4974), for 1 h at room temperature (RT). If not indicated otherwise, standard protein concentrations were 300 nM for His-TRAF proteins and 100 nM for GST-LMP1 proteins. Ni-NTA-acceptor (Perkin Elmer, #6760619 C) and GST-acceptor (Perkin Elmer, # 6765300) beads were added each to a final concentration of 1–4 µg per mL in a final reaction volume of 60 µL and incubated for 1 h at RT in the dark. AlphaScreen PPI signals were measured in a CLARIOstar reader (BMG Labtech GmbH).
(§2) All statistical analyses were performed with Prism v10.1.0 software (GraphPad Software Inc.). Two-way ANOVA was performed on experiments with two factors of variance (Figs. 1e and 3a). […] For KD determination, the data from each experiment were cleaned for the hook effect (signal depletion by oversaturation of the beads) and analyzed using the equation one site-specific binding with hill slope (Figs. 1f–i, and Supplementary Fig. 1f). The IC50 was determined using the log(inhibitor) vs. response – variable slope (four parameters) equation (Fig. 8b and d). […]

[2] = molecular target: T2, GST-LMP1_181-386 / His-TRAF6_310-522 (Homo sapiens, UniProt Q9Y4K3); assay: AlphaScreen PPI inhibition, LMP1-TRAF6; assay type: binding
T2 construct: recombinant GST-LMP1_181-386 and His-TRAF6_310-522; made in house; host or cells: E. coli (BL21 Codon Plus RIPL for the His-TRAF protein; DH5α or BL21 Codon Plus RIPL for the GST protein)
Procedure: as §1, §2

TRAF6_346-504 = assay: NMR spectroscopy (1H,15N HSQC) of TRAF6 with LMP1 peptide; assay type: binding, human; conditions: 90 μM 15N-TRAF6, five-fold excess peptide, PBS pH 7.4, 10% D2O, 298 K
Procedure: For NMR, a His-SUMO-TRAF6 fusion construct was expressed in E. coli Rosetta2 DE3 cells from pET-hSu-TRAF6_346-504. The recombinant protein was uniformly labeled with ^15N by growing expression cultures in ^15N-autoinduction medium. TRAF6 protein was purified from cell lysate via IMAC using a Ni-NTA column. After elution, the protein was transferred to 100 mM Tris-HCl pH 8.0, 300 mM NaCl, 20 mM imidazole, and 5 mM β-mercaptoethanol. SUMO-hydrolase dtUD1 was added (ratio 1:50) and incubated overnight at 4 °C. After cleavage, the protein was subjected to a second Ni-NTA affinity chromatography step and then further purified via size-exclusion chromatography using a Superdex 75 10/300 GL column (Äkta system, GE Healthcare). SEC buffer was PBS ([…], 2.7 mM KCl, 10 mM Na2HPO4, 1.8 mM KH2PO4 pH 7.4, 5 mM β-ME) and was subsequently used in the following NMR experiments. NMR spectra were recorded at 298 K using a Bruker Avance 600 spectrometer with a QCI cryogenic probe and topspin v.3.2 software (Bruker BioSpin). Spectra were processed using NMRDraw v.8.7 of NMRPipe software[86] and analyzed with the CCPN Analysis software v.2.4.1[87]. NMR titrations were performed by recording ^1H,^15N HSQC experiments. For titrations of TRAF6, samples of 90 μM ^15N-labeled TRAF6 in PBS pH 7.4, 10% D2O, and 5 mM β-ME were used. […]

His-TRAF6_(310-522) [3] = molecular target: T3, His-TRAF6_(310-522) (human, UniProt Q9Y4K3 310-522); assay: competition with GST-CD40(216-277)
T3 chain: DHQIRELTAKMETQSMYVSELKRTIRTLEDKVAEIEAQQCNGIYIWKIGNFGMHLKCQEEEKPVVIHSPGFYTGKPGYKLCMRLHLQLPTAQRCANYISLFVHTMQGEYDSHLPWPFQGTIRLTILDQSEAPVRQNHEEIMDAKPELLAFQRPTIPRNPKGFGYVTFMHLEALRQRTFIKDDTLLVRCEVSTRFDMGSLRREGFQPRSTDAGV

His-TRAF6_(310-522) [4] = molecular target: T4, His-TRAF6_(310-522) (human, UniProt Q9Y4K3 310-522); assay: AlphaScreen or HTRF; AlphaScreen PPI assay in competition: GST-LMP1 or GST-CD40 with His-TRAF6 (dose-response of TRAF6 inhibitor or control peptide, 4-parameter fit) or GST-LMP1 with His-TRAF2 (30 µM peptide); conditions: both partners purified
T4 construct: also called His-T6; recombinant TRAF6 wild-type; source: E. coli BL21 Codon Plus RIPL, purified (Ni-NTA)
T4 sequence: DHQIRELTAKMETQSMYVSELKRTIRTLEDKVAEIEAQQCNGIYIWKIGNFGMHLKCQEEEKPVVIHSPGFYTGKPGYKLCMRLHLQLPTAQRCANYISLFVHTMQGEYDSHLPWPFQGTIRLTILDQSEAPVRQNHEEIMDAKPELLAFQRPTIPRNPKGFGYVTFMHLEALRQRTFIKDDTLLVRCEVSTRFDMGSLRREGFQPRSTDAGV

[5] = molecular target: T5, His-TRAF6_(310-522) R392A (human, UniProt Q9Y4K3 310-522, R392A); assay: AlphaScreen or HTRF; AlphaScreen PPI assay: His-TRAF and GST-LMP1, GST-CD40 or GST-RANK in PBS with 0.5% BSA and 0.1% Tween-20, 1 h at RT; standard 300 nM His-TRAF and 100 nM GST protein if not indicated otherwise; for KD His-TRAF6 at different concentrations, fit one site-specific binding with hill slope; conditions: both partners purified
T5 construct: also called TRAF6 R392A; source: E. coli BL21 Codon Plus RIPL, purified (Ni-NTA)
T5 sequence: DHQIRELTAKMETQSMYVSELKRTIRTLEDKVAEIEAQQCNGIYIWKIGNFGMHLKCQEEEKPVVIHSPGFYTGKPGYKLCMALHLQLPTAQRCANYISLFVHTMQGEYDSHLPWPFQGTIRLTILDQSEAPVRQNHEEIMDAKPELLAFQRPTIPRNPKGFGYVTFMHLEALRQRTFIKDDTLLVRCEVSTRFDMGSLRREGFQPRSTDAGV

His-TRAF6_(310-522) [6] = molecular target: T4, His-TRAF6_(310-522); assay: as above; conditions: both partners purified
[7] = molecular target: T6, His-TRAF6_(310-522) K469A (human, UniProt Q9Y4K3 310-522, K469A); assay: as above; conditions: both partners purified
T6 construct: also called TRAF6 K469A; source: E. coli BL21 Codon Plus RIPL, purified (Ni-NTA)
T6 sequence: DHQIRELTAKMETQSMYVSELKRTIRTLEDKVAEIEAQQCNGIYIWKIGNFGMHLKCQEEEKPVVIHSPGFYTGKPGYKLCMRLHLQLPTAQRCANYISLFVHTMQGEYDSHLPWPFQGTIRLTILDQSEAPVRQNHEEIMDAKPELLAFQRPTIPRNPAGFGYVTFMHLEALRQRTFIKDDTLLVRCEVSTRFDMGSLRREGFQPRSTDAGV

TRAF6_(346-504) for NMR = molecular target: T7, TRAF6_(346-504) for NMR (human, UniProt Q9Y4K3 346-504, uniformly labeled with 15N); assay: NMR titration; conditions: both partners purified
T7 construct: also called 15N-labeled TRAF6; source: E. coli Rosetta2 DE3, purified (Ni-NTA, SUMO cleavage, second Ni-NTA, SEC)
T7 sequence: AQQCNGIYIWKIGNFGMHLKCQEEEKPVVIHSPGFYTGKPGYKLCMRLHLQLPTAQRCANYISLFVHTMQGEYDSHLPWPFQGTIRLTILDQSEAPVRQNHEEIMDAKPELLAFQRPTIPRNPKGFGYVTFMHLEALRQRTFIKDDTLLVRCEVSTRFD

Molecule: DRQIKIWFQNRRMKWKK [control peptide]
- inhibition of CD40-TRAF6 interaction (in words) [1]: no inhibition
- inhibition of LMP1-TRAF6 interaction (in words) [2]: inactive

Molecule: G378PVQLSYYD [LMP1 peptide G378PVQLSYYD, LMP1 peptide used in NMR titration]
- NMR signals of TRAF6 upon peptide addition (in words) (TRAF6_346-504): the signals corresponding to some of the TRAF6 residues were broadened beyond detection

B1: TRAF6 inhibitor peptide DRQIKIWFQNRRMKWKK-RKIPTEDEY (peptide)
peptide: DRQIKIWFQNRRMKWKKRKIPTEDEY
notes: also called RANK-derived peptide; source: bought: Novus Biologicals NBP2-26506
- IC50 (His-TRAF6_(310-522) [3]): 546 nM
- IC50 (His-TRAF6_(310-522) [4]): 177 nM

B2: GST-CD40_(216-277) (domain or fragment)
chain: KKVAKKPTNKAPHPKQEPQEINFPDDLPGSNTAAPVQETLHGCQPVTQEDGKESRISVQERQ
notes: source: E. coli DH5α or BL21 Codon Plus RIPL, purified (glutathione Sepharose 4B)
- binding result [5]: binds
- Kd (His-TRAF6_(310-522) [6]): 17.1 nM
- binding result [7]: binds

B3: LMP1 peptide G378PVQLSYYD (peptide)
peptide: GPVQLSYYD
notes: source: unlabeled peptide (PSL)
- binding result (TRAF6_(346-504) for NMR): binds
